Test results as given in patent US20260209386A1 (MYTHIC THERAPEUTICS, published 2026).

B1: MYT10888 (antibody, V domains shown)
VH: EVQLVESGGGLVQPGGSLRLSCTASGFSHSNYVMNWVRQAPGKGLEWVGIIDSSGSTYYASWAKGRFTISRDTSKNTVYLQMNSLRAEDTAVYFCARGLYLWGQGTLVTVSS
VL: EIVMTQSPSTLSASVGDRVIITCQSSQSVYNNNLLAWYQQKPGKAPKLLIYYTSNLASGVPSRFSGSGSGAEFTLTISSLQPDDFATYYCQGGYNGNIYAFGQGTKLTVL
notes: IgG
B2: MYT10916 (antibody, V domains shown)
VH: EVQLVESGGGLVQPGGSLRLSCTASGFSLSNYVMNWVRQAPGKGLEWVGIIDSSGSTYYASWAKGRFTISRDTSKNTVYLQMNSLRAEDTAVYFCARGLYHWGQGTLVTVSS
VL: EIVMTQSPSTLSASVGDRVIITCQSSQSVYNNNLLAWYQQKPGKAPKLLIYYTSNLASGVPSRFSGSGSGAEFTLTISSLQPDDFATYYCQGGYNGNIYAFGQGTKLTVL
notes: IgG
B3: MYT10903 (antibody, V domains shown)
VH: EVQLVESGGGLVQPGGSLRLSCTASGFSLSNYVMNWVRQAPGKGLEWVGIIDSSGSTHYASWAKGRFTISRDTSKNTVYLQMNSLRAEDTAVYFCARGLYLWGQGTLVTVSS
VL: EIVMTQSPSTLSASVGDRVIITCQSSQSVYNNNLLAWYQQKPGKAPKLLIYYTSNLASGVPSRFSGSGSGAEFTLTISSLQPDDFATYYCQGGYNGNIYAFGQGTKLTVL
notes: IgG
B4: MYT10898 (antibody, V domains shown)
VH: EVQLVESGGGLVQPGGSLRLSCTASGFSLSNYVMNWVRQAPGKGLEWVGIIDHSGSTYYASWAKGRFTISRDTSKNTVYLQMNSLRAEDTAVYFCARGLYLWGQGTLVTVSS
VL: EIVMTQSPSTLSASVGDRVIITCQSSQSVYNNNLLAWYQQKPGKAPKLLIYYTSNLASGVPSRFSGSGSGAEFTLTISSLQPDDFATYYCQGGYNGNIYAFGQGTKLTVL
notes: IgG
B5: MYT10926 (antibody, V domains shown)
VH: EVQLVESGGGLVQPGGSLRLSCTASGFSLSNYVMNWVRQAPGKGLEWVGIIDSSGSTYYASWAKGRFTISRDTSKNTVYLQMNSLRAEDTAVYFCARGLYLWGQGTLVTVSS
VL: EIVMTQSPSTLSASVGDRVIITCQSSQSVYHNNLLAWYQQKPGKAPKLLIYYTSNLASGVPSRFSGSGSGAEFTLTISSLQPDDFATYYCQGGYNGNIYAFGQGTKLTVL
notes: IgG
B6: MYT10897 (antibody, V domains shown)
VH: EVQLVESGGGLVQPGGSLRLSCTASGFSLSNYVMNWVRQAPGKGLEWVGIIHSSGSTYYASWAKGRFTISRDTSKNTVYLQMNSLRAEDTAVYFCARGLYLWGQGTLVTVSS
VL: EIVMTQSPSTLSASVGDRVIITCQSSQSVYNNNLLAWYQQKPGKAPKLLIYYTSNLASGVPSRFSGSGSGAEFTLTISSLQPDDFATYYCQGGYNGNIYAFGQGTKLTVL
notes: IgG
B7: MYT10911 (antibody, V domains shown)
VH: EVQLVESGGGLVQPGGSLRLSCTASGFSLSNYVMNWVRQAPGKGLEWVGIIDSSGSTYYASWAKGRFTISRDTSKNTVYLQMNSLRAEDTAVYFCHRGLYLWGQGTLVTVSS
VL: EIVMTQSPSTLSASVGDRVIITCQSSQSVYNNNLLAWYQQKPGKAPKLLIYYTSNLASGVPSRFSGSGSGAEFTLTISSLQPDDFATYYCQGGYNGNIYAFGQGTKLTVL
notes: IgG
B8: MYT10895 (antibody, V domains shown)
VH: EVQLVESGGGLVQPGGSLRLSCTASGFSLSNYVMNWVRQAPGKGLEWVGHIDSSGSTYYASWAKGRFTISRDTSKNTVYLQMNSLRAEDTAVYFCARGLYLWGQGTLVTVSS
VL: EIVMTQSPSTLSASVGDRVIITCQSSQSVYNNNLLAWYQQKPGKAPKLLIYYTSNLASGVPSRFSGSGSGAEFTLTISSLQPDDFATYYCQGGYNGNIYAFGQGTKLTVL
notes: IgG
B9: MYT10905 (antibody, V domains shown)
VH: EVQLVESGGGLVQPGGSLRLSCTASGFSLSNYVMNWVRQAPGKGLEWVGIIDSSGSTYYHSWAKGRFTISRDTSKNTVYLQMNSLRAEDTAVYFCARGLYLWGQGTLVTVSS
VL: EIVMTQSPSTLSASVGDRVIITCQSSQSVYNNNLLAWYQQKPGKAPKLLIYYTSNLASGVPSRFSGSGSGAEFTLTISSLQPDDFATYYCQGGYNGNIYAFGQGTKLTVL
notes: IgG
B10: MYT10927 (antibody, V domains shown)
VH: EVQLVESGGGLVQPGGSLRLSCTASGFSLSNYVMNWVRQAPGKGLEWVGIIDSSGSTYYASWAKGRFTISRDTSKNTVYLQMNSLRAEDTAVYFCARGLYLWGQGTLVTVSS
VL: EIVMTQSPSTLSASVGDRVIITCQSSQSVYNHNLLAWYQQKPGKAPKLLIYYTSNLASGVPSRFSGSGSGAEFTLTISSLQPDDFATYYCQGGYNGNIYAFGQGTKLTVL
notes: IgG
B11: MYT10896 (antibody, V domains shown)
VH: EVQLVESGGGLVQPGGSLRLSCTASGFSLSNYVMNWVRQAPGKGLEWVGIHDSSGSTYYASWAKGRFTISRDTSKNTVYLQMNSLRAEDTAVYFCARGLYLWGQGTLVTVSS
VL: EIVMTQSPSTLSASVGDRVIITCQSSQSVYNNNLLAWYQQKPGKAPKLLIYYTSNLASGVPSRFSGSGSGAEFTLTISSLQPDDFATYYCQGGYNGNIYAFGQGTKLTVL
notes: IgG
B12: MYT10920 (antibody, V domains shown)
VH: EVQLVESGGGLVQPGGSLRLSCTASGFSLSNYVMNWVRQAPGKGLEWVGIIDSSGSTYYASWAKGRFTISRDTSKNTVYLQMNSLRAEDTAVYFCARGLYLWGQGTLVTVSS
VL: EIVMTQSPSTLSASVGDRVIITCQHSQSVYNNNLLAWYQQKPGKAPKLLIYYTSNLASGVPSRFSGSGSGAEFTLTISSLQPDDFATYYCQGGYNGNIYAFGQGTKLTVL
notes: IgG
B13: MYT10925 (antibody, V domains shown)
VH: EVQLVESGGGLVQPGGSLRLSCTASGFSLSNYVMNWVRQAPGKGLEWVGIIDSSGSTYYASWAKGRFTISRDTSKNTVYLQMNSLRAEDTAVYFCARGLYLWGQGTLVTVSS
VL: EIVMTQSPSTLSASVGDRVIITCQSSQSVHNNNLLAWYQQKPGKAPKLLIYYTSNLASGVPSRFSGSGSGAEFTLTISSLQPDDFATYYCQGGYNGNIYAFGQGTKLTVL
notes: IgG
B14: MYT10891 (antibody, V domains shown)
VH: EVQLVESGGGLVQPGGSLRLSCTASGFSLSNHVMNWVRQAPGKGLEWVGIIDSSGSTYYASWAKGRFTISRDTSKNTVYLQMNSLRAEDTAVYFCARGLYLWGQGTLVTVSS
VL: EIVMTQSPSTLSASVGDRVIITCQSSQSVYNNNLLAWYQQKPGKAPKLLIYYTSNLASGVPSRFSGSGSGAEFTLTISSLQPDDFATYYCQGGYNGNIYAFGQGTKLTVL
notes: IgG
B15: MYT10889 (antibody, V domains shown)
VH: EVQLVESGGGLVQPGGSLRLSCTASGFSLHNYVMNWVRQAPGKGLEWVGIIDSSGSTYYASWAKGRFTISRDTSKNTVYLQMNSLRAEDTAVYFCARGLYLWGQGTLVTVSS
VL: EIVMTQSPSTLSASVGDRVIITCQSSQSVYNNNLLAWYQQKPGKAPKLLIYYTSNLASGVPSRFSGSGSGAEFTLTISSLQPDDFATYYCQGGYNGNIYAFGQGTKLTVL
notes: IgG

biological target: T1, Human PTK7/CCK4 Protein, His Tag, Acro Biosystems PT7-H52H3 (human, UniProt Q13308 31-704); experiment: BLI, antibody on anti-human Fc sensor, 50 nM PTK7
T1 construct: bought protein; also called Human PTK7 Protein, His Tag, Acro Biosystems; not shown: His tag
T1 sequence: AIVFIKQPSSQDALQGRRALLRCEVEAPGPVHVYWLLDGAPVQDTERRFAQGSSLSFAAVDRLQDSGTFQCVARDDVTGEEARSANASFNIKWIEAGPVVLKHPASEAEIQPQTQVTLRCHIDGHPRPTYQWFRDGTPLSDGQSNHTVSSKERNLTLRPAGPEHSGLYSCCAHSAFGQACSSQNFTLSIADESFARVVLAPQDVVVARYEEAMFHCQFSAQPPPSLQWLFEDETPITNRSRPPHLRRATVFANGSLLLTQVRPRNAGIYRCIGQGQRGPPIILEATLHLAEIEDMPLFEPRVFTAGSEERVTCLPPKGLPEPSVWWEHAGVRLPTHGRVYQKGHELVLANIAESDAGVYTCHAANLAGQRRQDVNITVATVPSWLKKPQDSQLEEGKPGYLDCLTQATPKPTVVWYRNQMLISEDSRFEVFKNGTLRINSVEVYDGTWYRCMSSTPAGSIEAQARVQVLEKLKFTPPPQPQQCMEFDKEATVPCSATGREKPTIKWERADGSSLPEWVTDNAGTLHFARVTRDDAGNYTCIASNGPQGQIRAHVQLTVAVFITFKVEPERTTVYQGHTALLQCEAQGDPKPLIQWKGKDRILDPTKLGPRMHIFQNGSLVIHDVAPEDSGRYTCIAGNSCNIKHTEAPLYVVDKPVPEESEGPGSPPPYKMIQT

Binding result, binds:
B1
B2
B3
B4
B5
B6
B7
B8
B9
B10
B11
B12
B13
B14
B15
